According to paper PMC12002316 (Proceedings of the National Academy of Sciences of the …, 2025):

Target: the molecule itself
Assay: cryo-EM structure

B1: Chloroflexus aurantiacus F1FO ATP synthase c-subunit (natural protein, Chloroflexus aurantiacus J-10-fl, UniProt A9WGS9 1-76, looked up)
chain: MEGLNLVATALAVGLGAIGPGVGIGIIVSGAVQAIGRNPEIENRVVTYMFIGIAFTEALAIFGLVIAFLIGFGVLQ
With B1 the “stoichiometry N” value was 10.
